The record followed here is patent US20090048324A1 (FOX CHASE CANCER CENTER, published 2009).

Numbering of substitutions follows the chain as printed.

Data set [1] concerns the molecule itself. The data set can be described thus: purification and dialysis against magnesium.
The target of another data set is T1, human PBGS variant F12L (human, UniProt P13716 1-330).
T1 construct: Hexamer in the crystal structure (PDB 1PV8); tetramer/hexamer mix in sedimentation equilibrium; also called F12L hexamer
T1 chain: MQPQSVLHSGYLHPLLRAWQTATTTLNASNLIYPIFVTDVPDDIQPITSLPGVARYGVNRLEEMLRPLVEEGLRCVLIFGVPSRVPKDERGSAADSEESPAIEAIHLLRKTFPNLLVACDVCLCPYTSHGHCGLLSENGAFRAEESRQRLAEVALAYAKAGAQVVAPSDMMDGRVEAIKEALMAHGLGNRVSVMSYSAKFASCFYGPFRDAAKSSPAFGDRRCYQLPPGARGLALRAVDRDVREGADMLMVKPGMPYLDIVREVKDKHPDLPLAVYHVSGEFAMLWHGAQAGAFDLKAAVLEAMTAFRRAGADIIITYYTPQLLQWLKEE
The data set can be described thus: coexpression, Q-Sepharose chromatography.

Data set [2] concerns the molecule itself. The data set can be described thus: cell-based or functional assay.

B1: Pseudomonas aeruginosa porphobilinogen synthase (enzyme)
chain: MSFTPANRAYPYTRLRRNRRDDFSRRLVRENVLTVDDLILPVFVLDGVNQRESIPSMPGVERLSIDQLLIEAEEWVALGIPALALFPVTPVEKKSLDAAEAYNPEGIAQRATRALRERFPELGIITDVALDPFTTHGQDGILDDDGYVLNDVSIDVLVRQALSHAEAGAQVVAPSDMMDGRIGAIREALESAGHTNVRIMAYSAKYASAYYGPFRDAVGSASNLGKGNKATYQMDPANSDEALHEVAADLAEGADMVMVKPGMPYLDIVRRVKDEFRAPTFVYQVSGEYAMHMGAIQNGWLAESVILESLTAFKRAGADGILTYFAKQAAEQLRRGR
notes: Purified as a dimer without magnesium and converted to the octamer by dialysis against magnesium; also called P. aeruginosa PBGS
B1: the binding result in data set [1] is “binds”.

B2: wild type human porphobilinogen synthase (PBGS), parent construct N59/C162A (enzyme)
chain: T1 chain with L12F
notes: Homo-oligomer, predominantly an octamer; also called Wt; WT
Turning to B2, in the data set with human PBGS variant F12L, the binding result is “binds”.

B3: pea (Pisum sativum) porphobilinogen synthase (enzyme, Pisum sativum (pea), UniProt P30124 69-398, looked up)
chain: SLPIQRRPRRNRRSPALRSAFQETTLSPANFVYPLFIHEGEEDTPIGAMPGCYRLGWRHGLLEEVAKARDVGVNSVVLFPKIPDALKTPTGDEAYNEDGLVPRSIRLLKDKYPDLIIYTDVALDPYSSDGHDGIVREDGVIMNDETVHQLCKQAVAQARAGADVVSPSDMMDGRVGAMRVALDAEGFQHVSIMSYTAKYASSFYGPFREALDSNPRFGDKKTYQMNPANYREALTEMREDESEGADILLVKPGLPYLDIIRLLRDNSPLPIAAYQVSGEYSMIKAGGALKMIDEEKVMMESLLCLRRAGADIILTYFALQAARTLCGEKR
As to B3, in data set [2], the “EC50 (read off the curve), specific activity against pea PBGS subunit concentration” value was roughly 30 nM.
